Several values for one entry are separate records, joined by “and”; a condition that tells them apart may be missing. Identical values can stand only once. Blank lines part the entries; values can stand above or below the substance they belong to.
Columns and labels:
[1] = target: D3H44 light chain Q124R, N-terminal HA or FLAG tag; assay: LCCA, L1:L2 DNA 1:9, SPR of light chain tags; competing light chain m18
[2] = target: D3H44 light chain Q124E_V133E, N-terminal HA or FLAG tag; assay: LCCA, L1:L2 DNA 1:3, SPR of light chain tags; competing light chain m17
[3] = target: D3H44 light chain Q124R_Q160K_T178R, N-terminal HA or FLAG tag; assay: LCCA, L1:L2 DNA 1:3, SPR of light chain tags; competing light chain m13
[4] = target: D3H44 light chain Q124R_Q160K_T178R, N-terminal HA or FLAG tag; assay: LCCA, L1:L2 DNA 1:3, SPR of light chain tags; competing light chain m20
[5] = target: D3H44 light chain Q124R, N-terminal HA or FLAG tag; assay: LCCA, L1:L2 DNA 1:3, SPR of light chain tags; competing light chain m18
[6] = target: D3H44 light chain Q124E_Q160E_T178E, N-terminal HA or FLAG tag; assay: LCCA, L1:L2 DNA 1:3, SPR of light chain tags; competing light chain m14
[7] = target: D3H44 light chain Q124E_T180E, N-terminal HA or FLAG tag; assay: as above
[8] = target: D3H44 light chain Q124E_V133E, N-terminal HA or FLAG tag; assay: LCCA, L1:L2 DNA 1:9, SPR of light chain tags; competing light chain m17
[9] = target: D3H44 light chain Q124E_V133Y_T180E, N-terminal HA or FLAG tag; assay: LCCA, SPR of light chain tags, L1:L2 DNA 1:3 norm. to 1:1; other light chain m14
[10] = target: D3H44 light chain Q124R_T178R, N-terminal HA or FLAG tag; assay: LCCA, SPR of light chain tags, L1:L2 DNA 1:3 norm. to 1:1; other light chain m22
[11] = target: D3H44 light chain Q124E_V133E, N-terminal HA or FLAG tag; assay: LCCA, L1:L2 DNA 1:9, SPR of light chain tags; competing light chain m14
[12] = target: D3H44 light chain Q124R_Q160K_T178R, N-terminal HA or FLAG tag; assay: LCCA, L1:L2 DNA 1:9, SPR of light chain tags; competing light chain m18
[13] = target: D3H44 light chain Q124R_Q160K_T178R, N-terminal HA or FLAG tag; assay: LCCA, L1:L2 DNA 1:3, SPR of light chain tags; competing light chain m18
[14] = target: D3H44 light chain Q124E_V133E, N-terminal HA or FLAG tag; assay: LCCA, L1:L2 DNA 1:3, SPR of light chain tags; competing light chain m14
[15] = target: D3H44 light chain Q124K_T178R, N-terminal HA or FLAG tag; assay: LCCA, L1:L2 DNA 1:3, SPR of light chain tags; competing light chain m11
[16] = target: D3H44 light chain Q124R_T178R, N-terminal HA or FLAG tag; assay: as above
[17] = target: D3H44 light chain Q124R_T178K, N-terminal HA or FLAG tag; assay: as above
[18] = target: D3H44 light chain Q124E_Q160E_T180E, N-terminal HA or FLAG tag; assay: LCCA, L1:L2 DNA 1:3, SPR of light chain tags; competing light chain m12
[19] = target: D3H44 light chain Q124E_T180E, N-terminal HA or FLAG tag; assay: as above
[20] = target: D3H44 light chain Q124E_S176L_T180E, N-terminal HA or FLAG tag; assay: as above
[21] = target: D3H44 light chain Q124E_Q160E_T180E, N-terminal HA or FLAG tag; assay: LCCA, L1:L2 DNA 1:9, SPR of light chain tags; competing light chain m12
[22] = target: D3H44 light chain Q124K_T178R, N-terminal HA or FLAG tag; assay: LCCA, L1:L2 DNA 1:3, SPR of light chain tags; competing light chain m13
[23] = target: D3H44 light chain T178R, N-terminal HA or FLAG tag; assay: as above
[24] = target: D3H44 light chain Q124R_T178R, N-terminal HA or FLAG tag; assay: as above
[25] = target: D3H44 light chain Q124R_T178R, N-terminal HA or FLAG tag; assay: LCCA, L1:L2 DNA 1:3, SPR of light chain tags; competing light chain m19
[26] = target: D3H44 light chain Q124E_Q160E_T180E, N-terminal HA or FLAG tag; assay: LCCA, L1:L2 DNA 1:3, SPR of light chain tags; competing light chain m15
[27] = target: D3H44 light chain Q124E_T180E, N-terminal HA or FLAG tag; assay: as above
[28] = target: D3H44 light chain Q124K_T178R, N-terminal HA or FLAG tag; assay: LCCA, L1:L2 DNA 1:9, SPR of light chain tags; competing light chain m11
[29] = target: D3H44 light chain Q124R_T178R, N-terminal HA or FLAG tag; assay: as above
[30] = target: D3H44 light chain Q124R_T178K, N-terminal HA or FLAG tag; assay: as above
[31] = target: D3H44 light chain Q124E_T180E, N-terminal HA or FLAG tag; assay: LCCA, L1:L2 DNA 1:3, SPR of light chain tags; competing light chain m10
[32] = target: D3H44 light chain Q124E_Q160E_T180E, N-terminal HA or FLAG tag; assay: LCCA, L1:L2 DNA 1:9, SPR of light chain tags; competing light chain m16
[33] = target: D3H44 light chain Q124E_Q160E_T180E, N-terminal HA or FLAG tag; assay: LCCA, L1:L2 DNA 1:3, SPR of light chain tags; competing light chain m16
[34] = target: D3H44 light chain Q124E_Q160E_T180E, N-terminal HA or FLAG tag; assay: LCCA, L1:L2 DNA 1:9, SPR of light chain tags; competing light chain m15
[35] = target: D3H44 light chain Q124E_S176L_T180E, N-terminal HA or FLAG tag; assay: LCCA, L1:L2 DNA 1:9, SPR of light chain tags; competing light chain m12
[36] = target: D3H44 light chain Q124R_T178R, N-terminal HA or FLAG tag; assay: LCCA, L1:L2 DNA 1:9, SPR of light chain tags; competing light chain m19
[37] = target: D3H44 light chain T178R, N-terminal HA or FLAG tag; assay: LCCA, L1:L2 DNA 1:3, SPR of light chain tags; competing light chain m11
[38] = target: D3H44 light chain Q124E_Q160E_T180E, N-terminal HA or FLAG tag; assay: LCCA, L1:L2 DNA 1:9, SPR of light chain tags; competing light chain m10
[39] = target: D3H44 light chain T178R, N-terminal HA or FLAG tag; assay: LCCA, L1:L2 DNA 1:9, SPR of light chain tags; competing light chain m11
[40] = target: D3H44 light chain Q124E_Q160E_T180E, N-terminal HA or FLAG tag; assay: LCCA, L1:L2 DNA 1:3, SPR of light chain tags; competing light chain m10

Substance: D3H44 Fab heavy chain L143A_Q179K, ABD2-His6 tagged
H1L1:H1L2 normalized median ratio [9]: 96%
H1L1:H1L2 normalized median scalar value ln(r1/f1) [9]: 1
H1L1:H1L2 normalized median ratio [10]: 4%

Substance: D3H44 Fab heavy chain L143E_K145T_Q179E_S188L, C-terminal ABD2-His6 tag
H1L1:H1L2 normalized median ratio [11]: 13 share of 100
H1L1:H1L2 normalized median ratio [12]: 87 share of 100
H1L1:H1L2 normalized median scalar value ln(r1/f1) [12]: 1.86
H1L1:H1L2 normalized median ratio [20]: 13 share of 100
H1L1:H1L2 normalized median ratio [35]: 10 share of 100
H1L1:H1L2 normalized median ratio [25]: 87 share of 100
H1L1:H1L2 normalized median scalar value ln(r1/f1) [25]: 1.9
H1L1:H1L2 normalized median ratio [13]: 89 share of 100
H1L1:H1L2 normalized median scalar value ln(r1/f1) [13]: 2.06
H1L1:H1L2 normalized median ratio [14]: 11 share of 100
H1L1:H1L2 normalized median ratio [36]: 90 share of 100
H1L1:H1L2 normalized median scalar value ln(r1/f1) [36]: 2.25

Substance: D3H44 Fab heavy chain S186K, C-terminal ABD2-His6 tag
H2L2:H2L1 normalized median ratio [37]: 9 share of 100
H2L2:H2L1 normalized median ratio [17]: 8 share of 100
H2L2:H2L1 normalized median ratio [38]: 87 share of 100
H2L2:H2L1 normalized median ratio [19]: 94 share of 100
H2L2:H2L1 normalized median ratio [20]: 96 share of 100
H2L2:H2L1 normalized median ratio [35]: 91 share of 100
H2L2:H2L1 normalized median ratio [23]: 4 share of 100
H2L2:H2L1 normalized median ratio [24]: 6 share of 100
H2L2:H2L1 normalized median ratio [3]: 3 share of 100
H2L2:H2L1 normalized median ratio [25]: 4 share of 100
H2L2:H2L1 normalized median ratio [4]: 1 share of 100
H2L2:H2L1 normalized median ratio [39]: 13 share of 100
H2L2:H2L1 normalized median ratio [40]: 91 share of 100
H2L2:H2L1 normalized median ratio [31]: 96 share of 100
H2L2:H2L1 normalized median ratio [6]: 99 share of 100
H2L2:H2L1 normalized median ratio [7]: 97 share of 100
H2L2:H2L1 normalized median ratio [36]: 9 share of 100
H2L2:H2L1 normalized median ratio [33]: 92 share of 100

Continued, values first:

H1L1:H1L2 normalized median ratio [1]: 88 share of 100
H1L1:H1L2 normalized median scalar value ln(r1/f1) [1]: 1.95
H1L1:H1L2 normalized median ratio [2]: 9 share of 100
H1L1:H1L2 normalized median ratio [3]: 59 share of 100
H1L1:H1L2 normalized median scalar value ln(r1/f1) [3]: 0.33 and 0.38
H1L1:H1L2 normalized median ratio [4]: 59 share of 100
H1L1:H1L2 normalized median scalar value ln(r1/f1) [4]: 0.37
H1L1:H1L2 normalized median ratio [5]: 91 share of 100
H1L1:H1L2 normalized median scalar value ln(r1/f1) [5]: 2.37
H1L1:H1L2 normalized median ratio [6]: 41 share of 100
H1L1:H1L2 normalized median ratio [7]: 41 share of 100
H1L1:H1L2 normalized median ratio [8]: 12 share of 100
Substance: D3H44 Fab heavy chain L143E_K145T, C-terminal ABD2-His6 tag

H2L2:H2L1 normalized median ratio [11]: 93 share of 100
H2L2:H2L1 normalized median ratio [12]: 7 share of 100
H2L2:H2L1 normalized median ratio [1]: 26 share of 100
H2L2:H2L1 normalized median ratio [2]: 96 share of 100
H2L2:H2L1 normalized median ratio [13]: 4 share of 100
H2L2:H2L1 normalized median ratio [5]: 4 share of 100
H2L2:H2L1 normalized median ratio [14]: 96 share of 100
H2L2:H2L1 normalized median ratio [8]: 74 share of 100
Substance: D3H44 Fab heavy chain L143R, C-terminal ABD2-His6 tag

H2L2:H2L1 normalized median ratio [15]: 8 share of 100
H2L2:H2L1 normalized median ratio [16]: 12 share of 100
H2L2:H2L1 normalized median ratio [17]: 11 share of 100
H2L2:H2L1 normalized median ratio [18]: 88 share of 100
H2L2:H2L1 normalized median ratio [19]: 96 share of 100
H2L2:H2L1 normalized median ratio [20]: 96 share of 100
H2L2:H2L1 normalized median ratio [21]: 90 share of 100
H2L2:H2L1 normalized median ratio [22]: 4 share of 100
H2L2:H2L1 normalized median ratio [23]: 4 share of 100
H2L2:H2L1 normalized median ratio [24]: 4 share of 100
H2L2:H2L1 normalized median ratio [3]: 4 share of 100
H2L2:H2L1 normalized median ratio [25]: 4 share of 100
H2L2:H2L1 normalized median ratio [26]: 92 share of 100
H2L2:H2L1 normalized median ratio [27]: 96 share of 100
H2L2:H2L1 normalized median ratio [28]: 10 share of 100
H2L2:H2L1 normalized median ratio [29]: 10 share of 100
H2L2:H2L1 normalized median ratio [30]: 7 share of 100
H2L2:H2L1 normalized median ratio [31]: 96 share of 100
H2L2:H2L1 normalized median ratio [32]: 93 share of 100
H2L2:H2L1 normalized median ratio [7]: 96 share of 100
H2L2:H2L1 normalized median ratio [33]: 89 share of 100
H2L2:H2L1 normalized median ratio [34]: 90 share of 100
Substance: D3H44 Fab heavy chain Q179K, C-terminal ABD2-His6 tag

From patent US11306156
